Measurements taken from patent publication US5985836A, “Alpha-1 proteinase inhibitor binding peptides” (Bayer Corporation, priority 1998, dated 1999).
Ends that are not written are not given here.

How the values were obtained:
Immunoglobulin A (IgA) = experiment: Purification from Effluent II+III, IgA mass balance; assay type: binding, human; details: 1 ml Eff. II+III, 4° C.
Method: (§1) Sequences 1-11 and 15 were assayed with Effluent II+III (Eff. II+III). Eff. II+III is a process intermediate in the Cohn plasma fractionation process. The feed stream contains 20% (by volume) ethanol, 20-25 mg/ml hSA and approximately 1 mg/ml AlPI. The stream also contains other proteins including anti-thrombin III (AT3), immunoglobin G (IgG), immunoglobin A (IgA), apolipoprotein alpha-1 (Apo A-1), transferrin (Trf), haptoglobin (Hpt), and alpha-1 acid glycoprotein (AAG) at concentrations ranging from 0.1-1 mg/ml.
(§2) The columns were assayed using the same technique as the hSA+AlPI experiments, allowing for a 10 minute residence time followed by a constant flow rate of 865 μl/min with step elutions of 1M NaCl, 3M NaCl, and 2% acetic acid. All experiments were conducted at 4° C. The mass balances for the injection of 1 ml Eff. […] The AlPI was enriched from 3% of the total protein in the feed to upwards of 50% in the acid eluate.

A1PI [1] = biological target: T1, A1PI (Homo sapiens, UniProt P01009); experiment: A1PI binding on peptide-resin column, injection of 1 mg A1PI in equilibration buffer; details: 1 mg A1PI in equilibration buffer
T1 construct: Human plasma is currently the only approved source of therapeutic AlPI
T1 sequence (P01009 25-418): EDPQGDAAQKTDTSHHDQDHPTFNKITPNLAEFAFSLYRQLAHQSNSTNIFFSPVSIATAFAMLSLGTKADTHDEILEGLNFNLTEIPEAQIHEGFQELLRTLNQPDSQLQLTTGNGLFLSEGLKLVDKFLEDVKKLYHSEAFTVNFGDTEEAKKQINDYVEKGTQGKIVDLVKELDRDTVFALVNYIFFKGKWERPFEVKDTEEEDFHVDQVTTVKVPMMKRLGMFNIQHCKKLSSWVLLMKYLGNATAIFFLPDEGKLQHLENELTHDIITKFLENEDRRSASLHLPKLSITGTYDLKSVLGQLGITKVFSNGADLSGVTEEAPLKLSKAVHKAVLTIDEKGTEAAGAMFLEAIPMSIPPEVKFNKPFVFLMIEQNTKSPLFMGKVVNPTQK
In short: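 Peptides synthesized on A-Totda-Toyopearl chelate resin (0.1 mmole/g) packed in 0.4×5 cm columns; 1 mg A1PI injected in equilibration buffer at 4 °C or 20 °C, 865 or 523 μl/min. Flowthrough, 1M/3M NaCl washes and 2% acetic acid eluate quantified by A280 or immunonephelometry as percent of total eluted.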

A1PI [2] = biological target: T1, A1PI; experiment: A1PI purification from 5 mg hSA + 1 mg A1PI on peptide column, A1PI mass balance; assay type: binding; details: for Mass AlPI Eluted in Acid Eluate: nephelometry; for Mass Protein per Eluate Fraction, 1M NaCl / Mass Protein per Eluate Fraction, 2% Ac. Acid / Mass Protein per Eluate Fraction, 3M NaCl / Mass Protein per Eluate Fraction, Flow / Percent Eluted by Fraction, 1M NaCl / Percent Eluted by Fraction, 2% Ac. Acid / Percent Eluted by Fraction, 3M NaCl / Percent Eluted by Fraction, Flow: A1PI, 5 mg hSA + 1 mg A1PI; for Mass Protein per Eluate Fraction, 1M NaCl / Mass Protein per Eluate Fraction, 2% Ac. Acid / Mass Protein per Eluate Fraction, 3M NaCl / Mass Protein per Eluate Fraction, Flow: * Below detection limit; for Percent Eluted by Fraction, 1M NaCl / Percent Eluted by Fraction, 2% Ac. Acid / Percent Eluted by Fraction, 3M NaCl / Percent Eluted by Fraction, Flow: relative to total eluted
In short: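 Peptides on A-Totda-Toyopearl resin (0.1 mmole/g) in 0.4×5 cm columns; 5 mg hSA + 1 mg A1PI loaded at 4 °C or 20 °C with 10 min residence (17 μl/min). Steps of 1M and 3M NaCl, then 2% acetic acid; fractions quantified by immunonephelometry for mass balance.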

[3] = biological target: T2, apolipoprotein alpha-1 (Apo A-1) (Homo sapiens, UniProt P02647); experiment: Purification from Effluent II+III, Apo A-1 mass balance; assay type: binding; details: 1 ml Eff. II+III, 4° C.
T2 construct: Eff; II+III is a process intermediate in the Cohn plasma fractionation process; tissue Bayer Corporation (Clayton, N.C.); host or cells: plasma fraction: Cohn Effluent II+III
T2 sequence (P02647 19-267): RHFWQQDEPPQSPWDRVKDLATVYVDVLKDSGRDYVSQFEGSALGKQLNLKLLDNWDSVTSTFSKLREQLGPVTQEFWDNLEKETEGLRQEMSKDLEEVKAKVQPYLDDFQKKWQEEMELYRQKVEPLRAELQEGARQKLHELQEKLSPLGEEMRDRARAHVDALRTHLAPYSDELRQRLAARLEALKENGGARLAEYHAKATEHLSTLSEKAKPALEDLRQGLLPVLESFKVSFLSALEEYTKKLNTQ
Method: as §1, §2

A1PI [4] = biological target: T1, A1PI; experiment: Capture and elution of active A1PI with 2M urea buffer (elastase inhibition activity assay and immunonephelometry); assay type: binding; details: 4° C.
A1PI [5] = biological target: T1, A1PI; experiment: Purification of A1PI from Effluent II+III on peptide column, A1PI mass balance; assay type: binding; details: A1PI, 1 ml Eff. II+III, 4° C.
In short: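 Run at 4° C: Effluent II+III (1 ml, 20% ethanol) loaded with a 10 min residence. Elution at 865 μl/min, in sequence 1M NaCl, 3M NaCl, 2% acetic acid; A1PI, IgA, IgG and haptoglobin accounted for in each fraction.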

Immunoglobulin G (IgG) = experiment: Purification from Effluent II+III, IgG mass balance; assay type: binding, human; details: 1 ml Eff. II+III, 4° C.
Method: as §1, §2

[6] = * as in Tables 4, 5 (below detection limit)

Percent A1PI Eluted by Fraction Based on Absorbance at 280 nm, 1M NaCl (A1PI [1]; 4° C.): 74%
Percent A1PI Eluted by Fraction Based on Absorbance at 280 nm, 2% Acetic Acid (A1PI [1]; 4° C.): 26%
Percent A1PI Eluted by Fraction Based on Absorbance at 280 nm, Flowthrough (A1PI [1]; 4° C.): 0%
Percent A1PI Eluted by Fraction, 1M NaCl (A1PI [1]; 20° C.): 55%
Percent A1PI Eluted by Fraction, 2% Acetic Acid (A1PI [1]; 20° C.): 45%
Percent A1PI Eluted by Fraction, Flowthrough (A1PI [1]; 20° C.): 0%
Mass AlPI Eluted in Acid Eluate (A1PI [2]; 250 μg AlPI injected with 5 mg hSA, 20° C.): 0.09 mg
Mass AlPI Eluted in Acid Eluate (A1PI [2]; 500 μg AlPI injected with 5 mg hSA, 20° C.): 0.21 mg
Mass AlPI Eluted in Acid Eluate (A1PI [2]; 1000 μg AlPI injected with 5 mg hSA, 20° C.): 0.30 mg
Mass Protein per Eluate Fraction, 1M NaCl (A1PI [2]; 4° C.): 0.31 mg
Mass Protein per Eluate Fraction, 2% Ac. Acid (A1PI [2]; 4° C.): 0.19 mg
Mass Protein per Eluate Fraction, 3M NaCl (A1PI [2]; 4° C.): 0.02 mg
Mass Protein per Eluate Fraction, Flow (A1PI [2]; 4° C.): 0.19 mg
Percent Eluted by Fraction, 1M NaCl (A1PI [2]; 4° C.): 44%
Percent Eluted by Fraction, 2% Ac. Acid (A1PI [2]; 4° C.): 27%
Percent Eluted by Fraction, 3M NaCl (A1PI [2]; 4° C.): 3%
Percent Eluted by Fraction, Flow (A1PI [2]; 4° C.): 27%
Mass Protein per Eluate Fraction, 1M NaCl (A1PI [2]; 20° C.): 0.32 mg
Mass Protein per Eluate Fraction, 2% Ac. Acid (A1PI [2]; 20° C.): 0.38 mg
Mass Protein per Eluate Fraction, 3M NaCl (A1PI [2]; 20° C.): 0.02 mg
Mass Protein per Eluate Fraction, Flow (A1PI [2]; 20° C.): 0.07 mg
Percent Eluted by Fraction, 1M NaCl (A1PI [2]; 20° C.): 41%
Percent Eluted by Fraction, 2% Ac. Acid (A1PI [2]; 20° C.): 48%
Percent Eluted by Fraction, 3M NaCl (A1PI [2]; 20° C.): 2%
Percent Eluted by Fraction, Flow (A1PI [2]; 20° C.): 9%
Percent Eluted by Fraction, 1M NaCl [3]: 60%
Percent Eluted by Fraction, 2% Acetic Acid [3]: 0%
Percent Eluted by Fraction, 3M NaCl [3]: 0%
Percent Eluted by Fraction, Flow [3]: 40%
Mass Protein per Eluate Fraction, 1M NaCl [3, 6]: 0.34 mg
Mass Protein per Eluate Fraction, Flow [3, 6]: 0.22 mg
Mass A1PI in Urea Eluate (mg), Activity (A1PI [4]; 1 mg A1PI, eluted with 2M urea, pH 6, elastase inhibition activity assay): 0.37 mg
Mass A1PI in Urea Eluate (mg), Nephelometry (A1PI [4]; 1 mg A1PI, eluted with 2M urea, pH 6, immunonephelometry): 0.49 mg
Specific Activity (A1PI [4]; mass of A1PI by activity assay relative to immunonephelometry, urea eluate): 0.75 mg/mg
Percent Eluted by Fraction, 1M NaCl (A1PI [5]): 16%
Percent Eluted by Fraction, 2% Acetic Acid (A1PI [5]): 29%
Percent Eluted by Fraction, 3M NaCl (A1PI [5]): 0%
Percent Eluted by Fraction, Flow (A1PI [5]): 56%
Mass Protein per Eluate Fraction, 1M NaCl (A1PI [5]; [6]): 0.15 mg
Mass Protein per Eluate Fraction, 2% Acetic Acid (A1PI [5]; [6]): 0.28 mg
Mass Protein per Eluate Fraction, Flow (A1PI [5]; [6]): 0.55 mg
Substance: PYWIVR
Percent Eluted by Fraction, 1M NaCl (Immunoglobulin A (IgA)): 57%
Percent Eluted by Fraction, 2% Acetic Acid (Immunoglobulin A (IgA)): 22%
Percent Eluted by Fraction, 3M NaCl (Immunoglobulin A (IgA)): 0%
Percent Eluted by Fraction, Flow (Immunoglobulin A (IgA)): 21%
Mass Protein per Eluate Fraction, 1M NaCl (Immunoglobulin A (IgA); [6]): 0.22 mg
Mass Protein per Eluate Fraction, 2% Acetic Acid (Immunoglobulin A (IgA); [6]): 0.08 mg
Mass Protein per Eluate Fraction, Flow (Immunoglobulin A (IgA); [6]): 0.08 mg
Percent Eluted by Fraction, 1M NaCl (Immunoglobulin G (IgG)): 10%
Percent Eluted by Fraction, 2% Acetic Acid (Immunoglobulin G (IgG)): 0%
Percent Eluted by Fraction, 3M NaCl (Immunoglobulin G (IgG)): 0%
Percent Eluted by Fraction, Flow (Immunoglobulin G (IgG)): 90%
Mass Protein per Eluate Fraction, 1M NaCl (Immunoglobulin G (IgG); [6]): 0.03 mg
Mass Protein per Eluate Fraction, Flow (Immunoglobulin G (IgG); [6]): 0.30 mg
